Laboratory results published in PMC10359629, “Thumb-domain dynamics modulate the functional repertoire of DNA-Polymerase IV (DinB)”.

How the values were obtained:
DinBΔPAD = molecular target: T1, DinBΔPAD (Escherichia coli, UniProt Q47155 1-230); test: NMR titration; BLI: 50 mM KPi pH 6.5, 50 mM NaCl, 10 mM MgSO4, 1 mM TCEP, 303 K; NMR titrations: NMR buffer (composition in Supplementary Table S2, not fully given), 298 K; conditions: protein: recombinant; tags: N-terminal His6 (stop codon at 231; tag inferred from parent plasmid); blunt; each strand also partly self-complementary (called self-complementary in text)
T1 sequence: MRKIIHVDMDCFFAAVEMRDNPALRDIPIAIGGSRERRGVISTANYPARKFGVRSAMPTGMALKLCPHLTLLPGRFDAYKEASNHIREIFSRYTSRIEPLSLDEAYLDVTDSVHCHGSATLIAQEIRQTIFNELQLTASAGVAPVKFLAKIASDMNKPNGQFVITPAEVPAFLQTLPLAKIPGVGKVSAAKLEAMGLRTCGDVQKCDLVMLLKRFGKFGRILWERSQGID

DinB (DNA polymerase IV) = molecular target: T2, DinB (DNA polymerase IV) (Escherichia coli, UniProt Q47155 1-351); test: as above; conditions: protein: recombinant; tags: N-terminal His6; blunt; each strand also partly self-complementary (called self-complementary in text)
T2 sequence: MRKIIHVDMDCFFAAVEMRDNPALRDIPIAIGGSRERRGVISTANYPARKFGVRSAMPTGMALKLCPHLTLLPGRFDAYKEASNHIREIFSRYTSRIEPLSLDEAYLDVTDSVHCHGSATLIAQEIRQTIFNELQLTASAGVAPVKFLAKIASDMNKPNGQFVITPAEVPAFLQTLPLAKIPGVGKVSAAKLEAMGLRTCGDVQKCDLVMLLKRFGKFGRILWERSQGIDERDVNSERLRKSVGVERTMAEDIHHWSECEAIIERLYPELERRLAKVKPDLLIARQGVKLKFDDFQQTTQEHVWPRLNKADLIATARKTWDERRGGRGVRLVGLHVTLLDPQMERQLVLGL

B1: 18mer dsDNA (dsDNA)
DNA 1: TCTAGGGTCCTAGGACCC
DNA 2: GGGTCCTAGGACCCTAGA
DinBΔPAD
  binding result: binds
DinB (DNA polymerase IV)
  binding result: binds
